From publication PMC2921345 come the findings set out here.

For assay [1], the target named is mRFP-Toca-1 (Transducer of Cdc42-dependent actin assembly, wild type). The experiment in a line: AP-FRET (acceptor photobleaching FRET) in transfected cells.
In assay [2] the target is mRFP-Toca-1 (Transducer of Cdc42-dependent actin assembly, wild type) (human). Put plainly: FRET or BRET; frequency-domain FLIM of the GFP donor (LIFA system, 40 MHz) in cells co-expressing GFP and mRFP proteins; lifetime of GFP in cells approximately 2.2 ns.
Sequence of mRFP-Toca-1 (Transducer of Cdc42-dependent actin assembly, wild type) (human) (Q5T0N5 whole entry): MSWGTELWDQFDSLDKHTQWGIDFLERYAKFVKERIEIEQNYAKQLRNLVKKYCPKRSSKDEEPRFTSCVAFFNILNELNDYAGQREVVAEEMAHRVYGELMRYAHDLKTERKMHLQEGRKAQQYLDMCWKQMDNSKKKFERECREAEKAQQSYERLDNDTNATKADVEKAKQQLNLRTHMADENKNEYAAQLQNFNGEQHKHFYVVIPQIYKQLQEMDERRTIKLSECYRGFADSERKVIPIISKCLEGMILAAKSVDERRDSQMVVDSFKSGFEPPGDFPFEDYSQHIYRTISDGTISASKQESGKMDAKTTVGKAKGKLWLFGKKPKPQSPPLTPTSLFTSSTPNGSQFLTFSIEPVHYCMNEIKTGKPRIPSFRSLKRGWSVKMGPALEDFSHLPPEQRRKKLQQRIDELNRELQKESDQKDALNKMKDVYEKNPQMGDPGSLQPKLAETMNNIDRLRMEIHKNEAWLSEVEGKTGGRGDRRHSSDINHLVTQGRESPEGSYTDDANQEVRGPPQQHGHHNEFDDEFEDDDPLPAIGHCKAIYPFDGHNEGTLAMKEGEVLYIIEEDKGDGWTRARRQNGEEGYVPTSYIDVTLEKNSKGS
The target in assay [3] is GFP-N-WASP (neuronal Wiskott Aldrich syndrome protein, wild type) (UniProt O08816). The experiment in a line: AP-FRET (acceptor photobleaching FRET) in transfected cells. The following applies: mRFP-Toca-1MGD383-385IST and GFP-N-WASP; 36 hr expression; n = 7-10, from 2-3 experiments.

Turning to Cdc42 (wild type) G12V, the other: FRET efficiency in assay [1] (ROI on tubules, mRFP-Toca-1, HA-N-WASP and GFP-Cdc42G12V co-expressed, 36 hours expression) turned out to be 9%; in assay [1] (ROI on vesicles, mRFP-Toca-1, HA-N-WASP and GFP-Cdc42G12V co-expressed, 36 hours expression) it was 0.03%.

As for “GFP-N-WASP (neuronal Wiskott Aldrich syndrome protein, wild type) (from UniProt O08816 1-501) (natural protein)”, in assay [2], the GFP donor lifetime (FLIM), in tubules worked out at 1.59 ns and the GFP donor lifetime (FLIM), in vesicles was determined as 1.64 ns.

Consider “GFP-N-WASP (neuronal Wiskott Aldrich syndrome protein, wild type) (from UniProt O08816) H208D”, for which, in assay [1] (mRFP-Toca-1 and GFP-N-WASPH208D, 36 hr expression, n = 7-10, from 2-3 experiments), the other: FRET efficiency was 3.87%.

For the substance “mRFP-Toca-1 (Transducer of Cdc42-dependent actin assembly, wild type) M383I; G384S; D385T”, the other: FRET efficiency in assay [3] worked out at 17.5%.
